Experimental data reported in patent US20180057581A1.
Where a chain is given by its changes, count along the chain named. Each block holds one binder with its values, some of them ahead of it.

Molecular target: M-CSF endogenously expressed on MDA-MB-231 cells (human) (UniProt P09603)
Assay: FACS, MDA-MB-231 cells endogenously expressing M-CSF (n = 2)

EC50: 0.019 µM
B6: Romaine, IgG1_D265A (antibody, V domains shown)
VH: EVQLVESGGGLVKPGGSLRLSCAASGFTFSIYAMSWVRQAPGKGLEWVGRIKSNADGGTTEYAAPVKGRFTISRDDSKNTLYLQMNSLKTEDTAVYYCARMRYYSDLYFDPWGQGTLVTVSS
VL: DIELTQPPSVSVSPGQTASITCSGDAIGSKYVHWYQQKPGQAPVLVISKDNKRPSGIPERFSGSNSGNTATLTISGTQAEDEADYYCQTATVSSYWWVFGGGTKLTVLG

EC50: 0.026 µM
B7: Satine, IgG1_D265A (antibody, V domains shown)
VH: B6 VH
VL: SYELTQPPSVSVSPGQTASITCSGDKLGQKYVSWYQQKPGQSPVLVISQDRKRPSGIPERFSGSNSGNTATLTISGTQAEDEADYYCQTWTHLQWVFGGGTKLTVLG

Further lines, the binder ahead of its results:

B1: HeRX1-10G1, IgG1 (antibody, V domains shown)
VH: QVQLQESGPGLVKPSQTLSLTCTVSDYSITSDYAWNWIRQFPGKGLEWMGYISYSGSTSYNPSLKSRITISRDTSKNQFSLQLNSVTAADTAVYYCASFDYAHAMDYWGQGTTVTVSS
VL: DIVLTQSPAFLSVTPGEKVTFTCQASQSIGTSIHWYQQKTDQAPKLLIKYASESISGIPSRFSGSGSGTDFTLTISSVEAEDAADYYCQQINSWPTTFGGGTKLEIKR
EC50: 0.027 µM

B2: HeRX1-10G1, IgG1_D265A (antibody, V domains shown)
VH: B1 VH
VL: B1 VL
EC50: 0.023 µM

B3: Madeleine, IgG1_D265A (antibody, V domains shown)
VH: QVQLQQSGPGLVKPSQTLSLTCAISGDSVSSNSAAWNWIRQSPSRGLEWLGRTYYRSKWKKEYAQSVKSRITINPDTSKNQFSLQLNSVTPEDTAVYYCARDRYYYSAFDYWGQGTLVTVSS
VL: QSALTQPASVSGSPGQSITISCTGTSSDVGGYNSVSWYQQHPGKAPKLMIYAVSNRPSGVSNRFSGSKSGNTASLTISGLQAEDEADYYCASYDERFTRVFGGGTKLTVLG
EC50: 0.01 µM

B4: Maelle, IgG1_D265A (antibody, V domains shown)
VH: B3 VH with D27E, S31T, N32S
VL: B3 VL with M49I
EC50: 0.008 µM

B5: Meriem, IgG1_D265A (antibody, V domains shown)
VH: B3 VH with S31T, N32S
VL: B3 VL with M49I
EC50: 0.01 µM
